Values quoted from earlier work, collected in PMC9240770.

Biological target: TREM-1 (Mus musculus) (UniProt Q9JKE2)
Assay: SPR

Sequence of UniProt Q9JKE2 (Q9JKE2 21-230): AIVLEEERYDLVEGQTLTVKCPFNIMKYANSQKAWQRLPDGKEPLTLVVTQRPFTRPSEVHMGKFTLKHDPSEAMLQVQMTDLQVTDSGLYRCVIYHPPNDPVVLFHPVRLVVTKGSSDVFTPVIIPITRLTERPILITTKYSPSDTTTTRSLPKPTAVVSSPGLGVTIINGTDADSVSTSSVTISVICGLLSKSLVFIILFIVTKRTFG

Substance | Kd [µM]
CIRP (from UniProt P60824) | 0.117
HMGB1 (from UniProt P63158) | 35.4
